# From patent KR20200019669A
# Key:
# [1] = target: his 태그가 부착된 재조합 인간 CD38 (recombinant human CD38 extracellular domain, His-tagged) (human) (UniProt P28907); assay: ForteBio (BLI), 1:1 fit
# [2] = target: 인간 CD38 (human CD38, full length, on cells) (human) (UniProt P28907); assay: cell-based or functional assay
Substance,Kd [1] [nM],CD38 시클라제 활성 억제 [2] [%]
IB4 (antibody),9,
다라투무맙 (daratumumab) (antibody),,70
